# Measured values from US20150118212A1.
# T1: human plasminogen, P00747
# T1 chain: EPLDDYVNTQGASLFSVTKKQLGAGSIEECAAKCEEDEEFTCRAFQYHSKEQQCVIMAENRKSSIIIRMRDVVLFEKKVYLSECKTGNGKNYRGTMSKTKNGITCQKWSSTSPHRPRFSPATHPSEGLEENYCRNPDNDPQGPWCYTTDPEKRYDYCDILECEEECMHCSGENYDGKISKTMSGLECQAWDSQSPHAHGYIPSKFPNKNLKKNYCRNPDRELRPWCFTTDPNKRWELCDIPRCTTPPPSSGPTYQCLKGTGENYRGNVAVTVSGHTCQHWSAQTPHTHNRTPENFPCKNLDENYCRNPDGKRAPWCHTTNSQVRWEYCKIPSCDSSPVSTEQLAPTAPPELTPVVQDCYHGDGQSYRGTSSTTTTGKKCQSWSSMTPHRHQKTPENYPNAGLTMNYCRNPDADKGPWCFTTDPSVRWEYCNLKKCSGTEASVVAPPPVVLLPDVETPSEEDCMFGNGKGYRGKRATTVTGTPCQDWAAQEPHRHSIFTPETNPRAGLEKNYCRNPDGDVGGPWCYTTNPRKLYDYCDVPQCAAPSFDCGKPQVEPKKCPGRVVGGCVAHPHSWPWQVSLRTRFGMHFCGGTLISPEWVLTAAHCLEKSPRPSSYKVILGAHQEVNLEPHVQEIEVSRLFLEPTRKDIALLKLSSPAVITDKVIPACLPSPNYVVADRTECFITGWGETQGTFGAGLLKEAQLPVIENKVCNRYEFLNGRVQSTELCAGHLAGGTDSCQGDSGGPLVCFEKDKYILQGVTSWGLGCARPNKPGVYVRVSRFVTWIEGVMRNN
# B1: SAK (Recombinant) (protein)
# chain: SSSFDKGKYKKGDDASYFEPTGPYLMVNVTGVDGKGNELLSPHYVEFPIKPGTTLTKEKIEYYVEWALDATAYKEFRVVELDPSAKIEVTYYDKNKKKEETKSFPITEKGFVVPDLSEHIKNPGFNLITKVVIEKK
# B2: SAK S3C (protein)
# chain: SSCFDKGKYKKGDDASYFEPTGPYLMVNVTGVDGKGNELLSPHYVEFPIKPGTTLTKEKIEYYVEWALDATAYKEFRVVELDPSAKIEVTYYDKNKKKEETKSFPITEKGFVVPDLSEHIKNPGFNLITKVVIEKK
# B3: SAK 1CNT (protein)
# chain: MCSSSFDKGKYKKGDDASYFEPTGPYLMVNVTGVDGKGNELLSPHYVEFPIKPGTTLTKEKIEYYVEWALDATAYKEFRVVELDPSAKIEVTYYDKNKKKEETKSFPITEKGFVVPDLSEHIKNPGFNLITKVVIEKK
# B4: SAK 2CNT (protein)
# chain: MCCSSSFDKGKYKKGDDASYFEPTGPYLMVNVTGVDGKGNELLSPHYVEFPIKPGTTLTKEKIEYYVEWALDATAYKEFRVVELDPSAKIEVTYYDKNKKKEETKSFPITEKGFVVPDLSEHIKNPGFNLITKVVIEKK
# B5: SAK 1CCT (protein)
# chain: SSSFDKGKYKKGDDASYFEPTGPYLMVNVTGVDGKGNELLSPHYVEFPIKPGTTLTKEKIEYYVEWALDATAYKEFRVVELDPSAKIEVTYYDKNKKKEETKSFPITEKGFVVPDLSEHIKNPGFNLITKVVIEKKAC
# B6: SAK 2CCT (protein)
# chain: SSSFDKGKYKKGDDASYFEPTGPYLMVNVTGVDGKGNELLSPHYVEFPIKPGTTLTKEKIEYYVEWALDATAYKEFRVVELDPSAKIEVTYYDKNKKKEETKSFPITEKGFVVPDLSEHIKNPGFNLITKVVIEKKCC
# Molecular target: T1, human plasminogen, P00747
row,Protein,Specific Activity (U/mg)
1,B1,66 ± 3.5 U/mg
2,B2,60 ± 4.1 U/mg
3,B3,40 ± 4.3 U/mg
4,B4,57 ± 3 8 U/mg
5,B5,64 ± 4.5 U/mg
6,B6,65 ± 3.8 U/mg
